Results taken from the RNAGym collection of RNA variant scans (doi:10.1073/pnas.2313332121).

B1: TPR t1 (parent)
chain: GACCAAUCUGCCCUCAGAGCUCGAGAACAUCUUCGGAUGCAGAGGAGGCAGGCUUCGGUGGCGCGAUAGCGCCAACGUCCUCAACCUCCAAUGCAUCCCACCACAUGAUGAUGCCUGAAGAGCCUUGGUUUUUUG

Variants of: B1
Assay: polymerase ribozyme fitness, log enrichment relative to wild type (log ratio); higher = more active; in vitro selection for triplet polymerase activity
Method in brief: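 Each subunit of a heterodimeric triplet polymerase ribozyme was represented by a PCR-built, transcribed mutant library that underwent triplicate single-round in vitro selection with frozen incubation at −7 °C. Extended constructs were recovered by gel excision, streptavidin-bead capture and RT-PCR, and Illumina sequencing of input and output libraries kept genotypes with ≥10 input reads and ≥1 read per output. Fitness is the logarithm of genotype enrichment relative to wild-type enrichment, from inverse-variance-weighted replicate averages, with a logarithm base of 2.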

Variant | polymerase ribozyme fitness (log ratio)
G51U U130A | -3.79
A24C G48C G69U | -6.7
C12G G63C | -1.09
A26G A37U G42U C72A G120C | -2.36
C12U G51A G120A G127C G128U | -1.84
G17C G69U G120U G128A | -2.65
G19A C40U U112A | -0.444
G42A G44C G47C C97U G120U U130C | -3.09
G63A C104A | -2.41
A6G U7G G44U G58C G113A | -0.812
C56G A84G C114U | -4.61
C15U | -1.37
A18U A121C | -0.0692
G120A A121C | -0.98
C12A G135U | -1.23
C99A G127A | -5.8
U59G G113A | -1.96
G61U C79U | 0.149
C11U G117U | -2.72
A29G G39U C94G | -2.78
C56U G122U | -0.129
C15U A111U A118C | -5.19
U7C | 0.304
C3U C12G C13U C62U G120A | 2.11

Variant | polymerase ribozyme fitness (log ratio)
C12U C70U | 0.3
G39C C73U C99U C102A C124A G135A | -4.92
C13U U106A | -0.0681
C34G C53G G61C U116C | -7.12
U59A U81A G107A C114U | -2.96
C4U G52U G128C U131A | -3.4
A27C G57A C123A | -4.55
G60A U78A A84U G93A C102A | -5
G47A C53G C73U C86U | -0.0372
U14C C49G A84C U106G U133G | -5.32
A2U A6U G57U G120C | -4.53
C12A C124G G127U | 1.3
G47C A90G G117C | -4.53
U21A A50G C72U A95G A105C | -2.73
G42A A119G | -0.491
C85U U116A G120C | -1.14
C70U G120C | 0.206
A50U G51U G69A C97U U109A | -6.25
C56A C99U A121C | -2.01
U32G G57C C76U C82G C85U C114G | -7.16
C53U G57U | 0.599
C4A C11G A16G G36C C56U G113U | -2.81
C97G G120A A121U | -3.45
G58A C72G C82A G110C G113A | -6.33

Variant | polymerase ribozyme fitness (log ratio)
G57U C70U C89U | -1.44
A27U U87G G122A | -3.02
A2C C70U A91C C101U U112A U129C | -4.54
C49A G52C C72A U96C | -0.937
C4U C79A U92C | -3.5
A37U U59C | -0.107
C11G C49G A90U C124G U129C | -2.5
G60C G128A | -2.48
C49A C73A C88U A91U | -1.03
C13U G69U C124U G135C | 2.21
A37U C86A U112G G128A | -3.56
C22G C56A C79A | -4.99
C70G A118U | -1.64
C11U A41U G63A U78C C88U C114U U131G | -6.29
U14G C89A C99G G113C C115U | -7.29
U126G U129A | -2.97
C56U U132C | -0.156
U9G C98A | -5.08
C8A A84U C102A | -1.91
G93A C101U C123U | 0.532
A50G C73A C82U | -0.0319
A5C C20A A37G A84U A90C U109G | -4.05
G48C C62U U92G | -3.68
A91G C115G | -4.4

Variant | polymerase ribozyme fitness (log ratio)
A5C G10A C34A C123U | -0.78
A16C C101U | -2.45
A29U U54G U55G C101U | -4.04
C72U C101G G120C | -1.35
G42C U54G C88A C102A | -5.41
G45U C62U U78G C101A G122A | -3.21
A50G G61C | -3.07
U33G G61U | -4.97
C12A G45U G58C C98U C101A | -3.82
C4G G57C C64U A83G C85U | -3.12
C53U U54C A90G G122A | -0.961
C98A C124A | -2.34
C13U U116C | 1.02
C8U C124G | 2.32
C49U G63U | -2
C3U C56U | -0.891
C13U C80U | -0.427
G57U U87A | -0.845
C8G U21C C22G G117C C123U C124A | -4.09
C13A G69C | -3.15
G63U C101U C115U C124U | -3.55
C8G A46C C97G C101A C114A U130C | -6.93
G110U U112G | -4.22
C8A C82A A90C | -1.03

Variant | polymerase ribozyme fitness (log ratio)
G51U G57A G65U A121U | -7.73
C12A U106A | -0.467
C13A G44C C124A | 0.459
A90U A95U G113C G122U | -1.98
G69C G93U | -2.49
C56U G77U C101A | -1.15
G10A C13A G39C U133A | -1.46
C22G A46G C82A A121G G135U | -2.94
A83C U106A C123U | 1.46
A16U C40U C82U | -2.7
G45C U87C A108U | -6.32
C62U G69A C97G G110C | -6.75
U112C C124U | 1.58
C3A U21C U96C C124G | 0.974
G63A C72U C101U | -1.24
C56G G61A G77A | 0.026
C4A C56U | -0.847
C13A C73U C79U U132A | -1.98
C40G G45A | -2.11
C53A G120U G127A | -0.445
C70U U87C C89A G120C | -2.9
G51A G61C | -3.7
U55G A66U A83U | -3.53
A18U U38G C123A | -4.13

Variant | polymerase ribozyme fitness (log ratio)
G48A G52U C80G | -5.98
A50G C70G | -4.35
U21G G48U U59C A74U C114A | -2.3
U9G C76G A90C C101U | -1.34
A6G A24G C73A | -1.35
C13G A43U A84G A121C U131G | -1.74
G61A C62G A75G A95U A121C | -5.37
C73U U125C | -2.06
C13A A66C C123A | -2.16
G48A A50C A84G | -0.336
U38A A90U | -2.22
C8U C15G A16U C70U A118C G120A C124U | -2.69
C28U A90U A111U | -5.21
U33G G36C | -7.66
C11A U21A A50C | -1.95
U54C U109G | -5.15
A5C A27C | -3.97
C20U U96G C123G U129A | -1.64
C28G G60U C80U C115U G120C C123A U131A | -6.73
C3U U7G C20U U21G G71U G110U C124G | -5.25
G71U C102A | -2.25
U78A U133A | -0.443
A66G G77A | -1.13
A16U G52U A111C U126G G127U | -2.8

Variant | polymerase ribozyme fitness (log ratio)
C13A G61U | -1.08
A5U A41U C64U G120C | -1.19
C8A C40G C88A A111C | -1.02
C73U C86G | -2.49
C3G U7G G17C | -3.73
G17A A41C A43U G44C | -5.92
C40A A108G A119G G122U | -2.47
G19U C70A | -4.07
C28G G36U C72U C73U | -4.2
C11U A37C G45U G58A U96A C101A | -2.32
A29U U59G U78G G120U G128C U134A | -2.27
C22G A27C | -4.37
A29U C56U | -1.54
G39A C72U U81G U96A G113C C124U | -6.86
C72U A100C | -1.3
U7C G17A A24G A26C C49A C56U C73G U87C G113A | -7
G44C U78C C115G C123U | -4.64
C80U U96C | -0.313
C11U C49G G61U A90C | -2.04
C8A G36C G60U | -0.605
G45U G51U C62U U78C C80G | -4.39
A46C C79A | -2.25
C123U | 1.07
